This is an account of results in publication PMC12703665, “A Trifunctional, Rare-Earth Theranostic Chelator Platform to Enable Diagnostic Nuclear Imaging, Surgical Resection, and Radiotherapy” (Journal of the American Chemical Society, 2025).

Series [1] concerns PC-3 PIP/flu (PSMA+/PSMA–) tumor xenografts. Put plainly: in vivo. Conditions: 2 h post injection, n = 4, listed as [161Tb]TbIII-pepa-pic2-C-Hex-KuE. On the procedure: (§1) For in vivo evaluation, athymic nude mice-bearing bilateral PC-3 PIP/flu (PSMA^+/PSMA^–) tumor xenografts were used (Figure ).
(§2) 5.1.1 Urine metabolite analysis
(§3) Metabolite analysis was performed by analyzing aliquots of 100 µL of mouse urine collected during biodistribution studies. If the collected urine volume was less than 100 µL, 1X DPBS was added in order to bring it up to a final volume of 100 µL. In cases where the radioactivity present in urine decayed to levels too low for detection by HPLC, fractions eluted from the radioHPLC were collected every 30 seconds, and the amount of radioactivity was estimated via gamma counting (Hidex Automatic Gamma Counter). The chromatogram was then reconstructed by plotting the recorded counts per minute recorded for each fraction […]
(§4) 5.2 In vitro optical imaging
(§5) Tumor tissues were harvested from male, nude, athymic mice bearing xenografts from PC3-PIP (PSMA+) and PC3-flu (PSMA-) were fixed for (24) hours in 10% neutral buffered formalin, processed and embedded into paraffin blocks. Tissues were sectioned at 5µm, dried and then deparaffinized with a 25-minute oven bake at 60°C, followed by a series of xylene and alcohol washes
(§6) Antigens were prepared in PerkinElmer’s 1X Antigen Retrieval pH 9.0 (AR900250ML) for 8 minutes in the microwave. Tissue sections were blocked with 1X Antibody Diluent/Block buffer (Akoya).
(§7) Ab-PSMA, natEu-pepa-pic2-C-Hex-KuE and DAPI staining.
(§8) Tissues were stained with Ab-PSMA (Ventana 760-6076; 11.75 µg/mL; 100uL per slide) for 30 minutes at room temperature. Slides were washed with TBS-T and secondary goat anti-rabbit was applied for 10 minutes at room temperature. Slides were washed with TBS-T and Akoya’s Opal dye 520 was applied for 10 minutes at room temperature. Antigen retrieval and blocking steps were performed again.
(§9) An aqueous solution of natEu-pepa-pic2-C-Hex-KuE (10 µM) was diluted at 1:1 with 1X Diluent/Block (Akoya) and 100 µL were applied per slide for 2 hours at room temperature. For DAPI staining, DAPI working solution (Akoya) was applied for 10 minutes at room temperature before mounting with ProLong™ Gold Antifade Mountant. Slides were imaged by Nuance Multispectral Scope at 20x objective.
(§10) 5.3 In vivo biodistribution in PSMA +/- mice models, PET-CT and SPECT imaging.
(§11) Male, nude, athymic mice were purchased from Jackson Laboratory. Ten days preceding the imaging study, mice were implanted with 1 × 10^6 cells (PC-3 PIP on the right, PC-3 flu on the left shoulder) in 100 µL of a 1:2 mixture of DPBS 1X/matrigel matrix subcutaneously.
(§12) A solution of 100 µL of labeled radiotracer was administered via tail vein injection into 8–10-week-old male nude mice (n = 4 per cohort) bearing PSMA+/- tumors.
(§13) For biodistribution studies, mice were euthanized at 2 hours (n=4) post-injection of the radio tracer. Organs were extracted, intestinal content removed, and activity assessed via a gamma counter. Biodistribution analysis values are represented as percentage of injected dose per gram of organ weight (% ID/g).

Series [2] can be described thus: in vivo. Conditions: male, athymic nude, mouse, intravenous, total radioactivity, 2 h post injection, n = 4. On the procedure: as §1, §2, §3, §4, §5, §6, §7, §8, §9, §10, §11, §12, §13
Series [3] concerns PC-3 PIP/flu (PSMA+/PSMA–) tumor xenografts. Conditions: biodistribution 2 h p.i. and SPECT 0.5-25 h.
Procedure: Following radiochemical labeling and formulation in PBS, [^177Lu]­Lu-pepa-pic2-C-hex-KuE and [^161Tb]­Tb-pepa-pic2-C-hex-KuE were evaluated by single point biodistribution (2 h p.i.) and serial SPECT imaging at 0.5, 1, 1.5, 4, and 25 h in direct comparison with the clinically validated radiopharmaceutical [^177Lu]­Lu-PSMA-617 as well as [^161Tb]­Tb-PSMA-617 (Figure d–e, Supporting Information, Figures S52–S55, and Table S2).
Representative PET-CT (Y-86) or SPECT (Lu-177, Tb-161) images were acquired at different time points starting as early as 0.5 h and up to 25-hours post administration of radiotracer. Mice were initially anesthetized with isoflurane gas at 4% isoflurane in oxygen and maintained during scans at 2.0%. PET-CT and SPECT images were normalized to units of percentage of injected dose per cubic centimeter and presented as maximum intensity projected scan (MIPS) images.
PET-CT scans were acquired in a Siemens Inveon Hybrid MicroPET/CT Scanner (Siemens Medical Solutions USA, Inc., Knoxville, TN), and image processing and region of interest (ROI) analysis conducted using the Inveon Research Workstation analysis software. ROI analysis of the PET/CT images was used to estimate tracer uptake in major organs or tissues, and quantitative results are given as percentage of injected dose per cubic centimeter (%ID/cc). […]
The conditions of series [4]: 277 nm; ref 11 (SI); cited from earlier work.

Turning to `COCCOCCOCCOc1ccc(C#Cc2cc(CN3CCN(Cc4cccc(C(=O)O)n4)CCN(Cc4cc(SC[C@H](N)C(=O)NCCCCCC(=O)NCCCC[C@H](NC(=O)N[C@@H](CCC(=O)O)C(=O)O)C(=O)O)cc(C(=O)O)n4)CC3)nc(C(=O)O)c2)cc1` [[161Tb]Tb-pepa-pic2-C-Hex-KuE, metal not drawn], in series [1], the Blood was determined as 0.45 ± 0.06 % ID/g, the Bone is recorded as 0.24 ± 0.03 % ID/g, the Heart amounted to 0.21 ± 0.03 % ID/g and the Kidney is 17.89 ± 2.70 % ID/g. In addition, in series [1], the “Large Intestine” value is listed as 0.98 ± 1.44 % ID/g, the Liver was 0.64 ± 0.09 % ID/g, the Lungs worked out at 0.50 ± 0.07 % ID/g and the Muscle is given as 0.11 ± 0.03 % ID/g. Also, in series [1], the “Small Intestine” value came out at 0.33 ± 0.37 % ID/g and the Spleen came out at 0.50 ± 0.09 % ID/g. Besides, in series [1] (PSMA+ tumor), the “Tumor +” value is listed as 7.33 ± 1.59 % ID/g. The tissue uptake at 2 h in series [2] (PSMA- tumor, Tumor -) is 0.7 ± 1.59 %ID/g.

`COCCOCCOCCOc1ccc(C#Cc2cc(CN3CCN(Cc4cccc(C(=O)O)n4)CCN(Cc4cc(SC[C@H](N)C(=O)NCCCCCC(=O)NCCCC[C@H](NC(=O)N[C@@H](CCC(=O)O)C(=O)O)C(=O)O)cc(C(=O)O)n4)CC3)nc(C(=O)O)c2)cc1` [[177Lu]Lu-pepa-pic2-C-Hex-KuE, metal not drawn]: the tissue uptake at 2 h in series [2] (PSMA+ tumor, Tumor +, PSMA+ tumor) was found to be 4.57 ± 0.9 %ID/g; in series [2] (blood) it was 0.3 ± 0.1 %ID/g; in series [2] (bone), 0.25 ± 0.02 %ID/g; in series [2] (heart), 0.19 ± 0.07 %ID/g; in series [2] (kidney), 25.9 ± 8.51 %ID/g; in series [2] (large intestine) it was 0.49 ± 0.27 %ID/g. The tissue uptake at 2 h was 0.5 ± 0.05 %ID/g in series [2] (liver); 0.47 ± 0.26 %ID/g in series [2] (lungs); 0.11 ± 0.05 %ID/g in series [2] (muscle); 0.33 ± 0.27 %ID/g in series [2] (small intestine); 0.53 ± 0.24 %ID/g in series [2] (spleen). Moreover, in series [3], the “uptake of activity in the PSMA-expressing tumor” value is “persistent, statistically significant uptake”.

Turning to PSMA-617, in series [4], the ε277 is 4268 M⁻¹ cm⁻¹.
